Experimental data taken from paper PMC8833184.
Numbering of substitutions follows the chain as printed.

Assays:
[1] = molecular target: T1, SF3A1-UBL G790I (human, UniProt Q15459 704-793, G790I); assay: SPR
T1 sequence: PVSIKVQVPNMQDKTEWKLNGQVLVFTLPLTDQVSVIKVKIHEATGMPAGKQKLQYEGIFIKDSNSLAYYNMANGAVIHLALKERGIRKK

[2] = molecular target: T2, SF3A1-UBL WT (human, UniProt Q15459 704-793); assay: SPR
T2 sequence: T1 sequence with I87G

[3] = molecular target: T3, SF3A1-UBL K754A (human, UniProt Q15459 704-793, K754A); assay: SPR
T3 sequence: T1 sequence with K51A, I87G

[4] = molecular target: T4, SF3A1-UBL K765A (human, UniProt Q15459 704-793, K765A); assay: SPR
T4 sequence: T1 sequence with K62A, I87G

[5] = molecular target: T5, SF3A1-UBL R791A (human, UniProt Q15459 704-793, R791A); assay: SPR
T5 sequence: T1 sequence with I87G, R88A

[6] = molecular target: T6, SF3A1-UBL K717A (human, UniProt Q15459 704-793, K717A); assay: SPR
T6 sequence: T1 sequence with K14A, I87G

[7] = molecular target: T7, SF3A1-UBL F763A (human, UniProt Q15459 704-793, F763A); assay: SPR
T7 sequence: T1 sequence with F60A, I87G

[8] = molecular target: T8, SF3A1-UBL G789I (human, UniProt Q15459 704-793, G789I); assay: SPR
T8 sequence: T1 sequence with G86I, I87G

[9] = molecular target: T2, SF3A1-UBL WT; assay: NMR

Binder	Kd [1] [µM]	Kd [2] [µM]	Kd [3] [µM]	Kd [4] [µM]	Kd [5] [µM]	Kd [6] [µM]	Kd [7] [µM]	Kd [8] [µM]	binding result [9]
GGGGACUGCGUUCGCGCUUUCCCC (structured_RNA) [Biotin-U1-SL4-WT]	14.1 ± 3.12	0.332 ± 0.03	16.7 ± 4.38	7.89 ± 0.71	5.97 ± 0.5	1.59 ± 0.27	2.76 ± 0.3	41.9 ± 5.7	–
GGGACUGCGUUCGCGCUUUCCC (structured_RNA) [22 nt U1-SL4]	–	–	–	–	–	–	–	–	binds
